Biological target: heat shock protein 90β (African green monkey (endogenous in Vero))
Experiment: flow cytometry on cells

Japanese encephalitis virus strain SA14, purified viral particles (complex)
percentage of HSP90β-JEV binding by FCM (0 μg/ml anti-HSP90β mAb): 76.2%
percentage of HSP90β-JEV binding by FCM (with 20 μg/ml anti-HSP90β mAb): 19.1%
percentage of HSP90β-JEV binding by FCM (with 100 μg/ml anti-HSP90β mAb): 10.4%

— PMC5505021
